How the values were obtained:
[1] = biological target: T1, soluble form of the extracellular domain of human CD40 (Creative BioMart) (human, UniProt P25942 21-193); assay: SPR, Ab captured
T1 construct: Bought
Procedure: (§1) CD40 binding kinetics was analyzed by surface plasmon resonance assay with a Biacore T200 instrument (Table 1-5). Briefly, a goat anti-mouse Fc antibody (Pierce) or goat anti-human Fc (Pierce) was immobilized on a CM5 sensor chip, followed by capture of the anti-CD40 antibodies on the test surface. Subsequently, the soluble form of the extracellular domain of human CD40 (Creative BioMart) or cynomolgus (cyno) CD40 (Creative BioMart) was injected, and the binding and dissociation were measured.

[2] = biological target: T2, soluble form of the extracellular domain of cynomolgus (cyno) CD40 (Creative BioMart) (cynomolgus, UniProt G7PG38 21-193); assay: SPR, Ab captured
T2 construct: extracellular domain; also called Cynomolgus CD40
Procedure: as §1

[3] = biological target: CD40 (binding assays of Example 4, Table 4-2); assay: antigen binding, format not stated
Sequence of CD40 (binding assays of Example 4, Table 4-2) (P25942 21-277): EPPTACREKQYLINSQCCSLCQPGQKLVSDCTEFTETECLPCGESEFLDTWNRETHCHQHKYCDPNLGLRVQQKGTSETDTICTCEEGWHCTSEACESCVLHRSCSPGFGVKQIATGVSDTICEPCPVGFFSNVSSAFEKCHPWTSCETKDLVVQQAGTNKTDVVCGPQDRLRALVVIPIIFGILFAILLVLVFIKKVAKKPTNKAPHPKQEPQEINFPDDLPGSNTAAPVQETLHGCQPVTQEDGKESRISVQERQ

mouse CD40 = biological target: T3, mouse CD40 (mouse, UniProt P27512 20-193, limits assumed); assay: FACS
T3 construct: also called murine CD40
T3 sequence (looked up): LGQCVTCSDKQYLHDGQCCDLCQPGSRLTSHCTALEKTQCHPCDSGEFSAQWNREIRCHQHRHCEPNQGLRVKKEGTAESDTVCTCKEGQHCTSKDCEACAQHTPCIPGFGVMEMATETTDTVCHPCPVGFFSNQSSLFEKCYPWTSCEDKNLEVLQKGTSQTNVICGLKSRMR

dog CD40 = biological target: T4, dog CD40 (dog, UniProt Q7YRL5 21-194, limits assumed); assay: FACS
T4 sequence (looked up): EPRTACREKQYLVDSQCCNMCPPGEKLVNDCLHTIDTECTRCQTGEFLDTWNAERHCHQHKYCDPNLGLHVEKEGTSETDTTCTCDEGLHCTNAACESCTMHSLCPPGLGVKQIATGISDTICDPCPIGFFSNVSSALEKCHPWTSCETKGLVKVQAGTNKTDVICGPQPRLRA

[4] = biological target: human CD40 on cells (HEK293 stable transfectants, HEK-Blue CD40 cells, human B cells, monocytic cells, … (human, UniProt P25942 21-277)); assay: cell-based or functional assay
Sequence of human CD40 on cells (HEK293 stable transfectants, HEK-Blue CD40 cells, human B cells, monocytic cells, … (P25942 21-277 limits assumed): as the sequence (P25942 21-277) above

[5] = biological target: T5, mesothelin on cells (endogenous on SN12C, OVCAR3, SW1990); HEK293 cells expressing cell-surface human … (human, UniProt Q13421 296-598); assay: FACS, SN12C (CA125-)
T5 construct: whole, on cells; also called cell-surface MSLN
T5 sequence (Q13421 other isoform, or with tags, fused parts or gaps limits assumed): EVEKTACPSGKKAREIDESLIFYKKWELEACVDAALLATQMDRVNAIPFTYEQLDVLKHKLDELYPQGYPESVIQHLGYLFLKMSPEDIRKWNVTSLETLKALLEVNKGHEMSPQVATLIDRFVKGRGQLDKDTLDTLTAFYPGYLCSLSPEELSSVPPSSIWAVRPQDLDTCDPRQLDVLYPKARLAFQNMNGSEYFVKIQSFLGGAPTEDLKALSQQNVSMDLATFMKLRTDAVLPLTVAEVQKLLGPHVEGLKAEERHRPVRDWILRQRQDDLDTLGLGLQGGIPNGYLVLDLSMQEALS
Procedure: (§2) The binding of anti-mesothelin affinity matured variants was measured by FACS on the ovarian cancer cell line OVCAR3, the pancreatic cancer cell line SW1990, and the renal cancer cell line SN12C. Both OVCAR3 and SW1990 express CA125, but CA125 expression on SN12C cells was not detected.

[6] = biological target: T5, mesothelin on cells (endogenous on …); assay: FACS, OVCAR3 (CA125+)
Procedure: as §2

[7] = biological target: T6, MSLN (binding assays of Example 4, Table 4-2) (Homo sapiens (Human), UniProt Q13421 296-598); assay: antigen binding, format not stated
T6 construct: also called mesothelin

cynomolgus mesothelin = biological target: T7, cynomolgus mesothelin (cynomolgus); assay: SPR
T7 construct: also called cynoMSLN; Cyno MSLN

human mesothelin = biological target: T8, human mesothelin (human, UniProt Q13421 296-580, limits assumed); assay: SPR
T8 construct: also called Human MSLN
T8 sequence (Q13421 other isoform, or with tags, fused parts or gaps limits assumed): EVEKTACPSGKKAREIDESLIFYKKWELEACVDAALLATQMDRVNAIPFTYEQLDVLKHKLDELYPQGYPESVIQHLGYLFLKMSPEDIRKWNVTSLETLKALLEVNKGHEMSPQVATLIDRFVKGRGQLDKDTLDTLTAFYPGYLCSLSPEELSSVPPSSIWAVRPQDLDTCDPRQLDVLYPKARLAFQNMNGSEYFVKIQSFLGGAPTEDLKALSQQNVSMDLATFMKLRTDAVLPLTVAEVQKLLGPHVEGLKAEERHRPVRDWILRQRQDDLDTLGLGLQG

[8] = biological target: T9, mouse 4-1BB on HEK293 cells (mouse, UniProt P20334 24-256); assay: FACS, HEK293 mouse 4-1BB
T9 construct: whole, on cells
T9 sequence (looked up): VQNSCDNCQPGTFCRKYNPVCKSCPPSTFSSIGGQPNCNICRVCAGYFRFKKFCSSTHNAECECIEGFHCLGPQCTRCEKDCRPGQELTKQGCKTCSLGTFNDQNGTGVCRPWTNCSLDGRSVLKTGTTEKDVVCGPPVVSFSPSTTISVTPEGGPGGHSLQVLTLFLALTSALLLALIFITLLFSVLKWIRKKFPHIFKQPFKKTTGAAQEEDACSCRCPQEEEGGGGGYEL
Procedure: To determine species specificity and relative binding affinities of the test antibodies, cell lines were generated to exogenously express 4-1BB on the membrane. HEK293 cells were transfected with a plasmid expressing the human, cynomolgus, or mouse 4-1BB proteins. Stable, high expressing populations were sorted on the MoFlo sorter (Beckman) and maintained in DMEM, 10% fetal bovine serum, containing 500 μg/mL G418. For the assay, cells were dissociated with trypsin, resuspended at 5×10⁶ cells/mL and transferred to the 500 μL polypropylene plate (Nunc) at 50 μL/well (250,000 cells/well). […] Cells were washed twice with 250 μL/PBS (Hyclone) per well. PE-labelled detection antibodies were added at 1:250 dilution of stock, 50 μL/well, and incubated for 20 minutes at room temperature. The following detection antibodies were used: Goat anti-Rat IgG-PE (Southern Biotech), Goat anti-Mouse IgG-PE (Southern Biotech) or Goat anti-Human IgG-PE (Southern Biotech). Cells were washed once and fixed with PBS containing 1% Formaldehyde. Plate was analyzed for fluorescence on the FACSCalibur (Becton Dickinson).

T1 sequence (P25942 21-193 limits assumed): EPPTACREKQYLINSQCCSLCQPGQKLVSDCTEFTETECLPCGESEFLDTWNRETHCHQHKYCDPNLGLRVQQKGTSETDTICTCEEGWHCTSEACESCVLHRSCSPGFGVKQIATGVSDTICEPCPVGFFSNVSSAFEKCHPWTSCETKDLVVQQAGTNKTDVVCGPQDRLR

B1: huAb8-1 (antibody, human IgG1, V domains shown)
VH: EVQLVQSGAEVKKPGSSVKVSCKASGYTFTDYYINWVRQAPGQGLEWIGWIFPGSGSVYCNEQFKGRATLTVDRSTSTAYMELSSLRSEDTAVYFCASSLGKFAYWGQGTLVTVSS
VL: DIQMTQSPSSLSASVGDRVTITCKASQSVVTAVAWYQQKPGKSPKLLIYSASNRYTGVPSRFSGSGSGTDFTLTISSLQPEDFATYFCQQYSSYPYTFGGGTKVEIK
notes: human IgG1, kappa
[1]
  Kd: 3 nM
  koff: 0.0023 s⁻¹
  kon: 770000 M⁻¹ s⁻¹
[2]
  Kd: 7.1 nM
  koff: 0.0071 s⁻¹
  kon: 1e+06 M⁻¹ s⁻¹
[3]
  EC50: 0.4 mg/L
Mouse CD40
  binding result: no binding
Dog CD40
  binding result: no binding
[4]
  NF-κB activation EC50, HEK293 CD40 NFκB reporter cells: 0.14 mg/L

B2: huAb9-5 (antibody, human IgG1, kappa)
heavy: not shown
light: DAVMTQTPLSLSVTPGQPASISCRSSQSLENTNGNTFLNWYLQKPGQSPQLLIYRVSNRFSGVPDRFSGSGSGTDFTLKISRVEAEDVGVYYCLQVTHVPFTFGQGTKLEIKRTVAAPSVFIFPPSDEQLKSGTASVVCLLNNFYPREAKVQWKVDNALQSGNSQESVTEQDSKDSTYSLSSTLTLSKADYEKHKVYACEVTHQGLSSPVTKSFNRGEC
notes: human IgG1, kappa
[1]
  Kd: 15 nM
  koff: 0.026 s⁻¹
  kon: 1.7e+06 M⁻¹ s⁻¹
[2]
  Kd: 13 nM
  koff: 0.024 s⁻¹
  kon: 1.8e+06 M⁻¹ s⁻¹
[3]
  EC50: 0.2 mg/L
Mouse CD40
  binding result: no binding
Dog CD40
  binding result: no binding
[4]
  NF-κB activation EC50, HEK293 CD40 NFκB reporter cells: 1.13 mg/L

B3: HuAM15 (antibody, V domains shown)
VH: EVQLVQSGAEVKKPGASVKVSCKASGDTFKRYYVHWVRQAPGQGLEWMGIINPSGVSTTYAQKFQGRVTMTRDTSTSTVYMELSSLRSEDTAVYYCAEVRGSGFNYFGMDVWGQGTLVTVSS
VL: SYELTQPPSVSVSPGQTASITCSGDKLGDKYASWYQQKPGQSPVLVIYQDNRRPSGIPERFSGSNSGNTATLTISGTQAMDEADYYCQAWDSDTYVFGTGTKVTVL
notes: fully human antibody
[5]
  EC50: 0.07 mg/L
  Maximum binding (MFI): 9390 MFI
[6]
  EC50: 0.7 mg/L
  Maximum binding (MFI): 3550 MFI
[7]
  EC50: 0.9 mg/L
Cynomolgus mesothelin
  Kd: 4.5 nM
  koff: 0.00018 s⁻¹
  kon: 40000 M⁻¹ s⁻¹
Human mesothelin
  Kd: 0.31 nM
  koff: 1.3e-05 s⁻¹
  kon: 44000 M⁻¹ s⁻¹

B4: hu106-1 mIgG1 (antibody, V domains shown)
VH: EVQLVQSGAEVKKPGSSVKVSCKASGYTFTSYYIYWVRQAPGQGLEWIGNIWPGNGGTFYGEKFMGRATFTADTSTSTAYMELSSLRSEDTAVYYCARRPDYSGDDYFDYWGQGTLVTVSS
VL: NVMLTQPHSVSESPGKTVTISCKLNSGNIGSYYVHWYQQRPGSSPTTMIYRDDKRPDGVPDRFSGSIDSSSNSASLTISGLKTEDEADYYCHSYDSTITPVFGGGTKLTVL
notes: also called hu106-1 with the muIgG1 constant region
[8]
  EC50: 0.69 nM

B5: hu106-1 T252M mIgG1 (antibody, V domains shown)
VH: EVQLVQSGAEVKKPGSSVKVSCKASGYTFTSYYIYWVRQAPGQGLEWIGNIWPGNGGTFYGEKFMGRATFTADTSTSTAYMELSSLRSEDTAVYYCARRPDYSGDDYFDYWGQGTLVTVSS
VL: NVMLTQPHSVSESPGKTVTISCKLNSGNIGSYYVHWYQQRPGSSPTTMIYRDDKRPDGVPDRFSGSIDSSSNSASLTISGLKTEDEADYYCHSYDSTITPVFGGGTKLTVL
notes: also called hu106-1 mIgG1 T252M
[8]
  EC50: 0.95 nM

B6: Hu106mPSMA-3 (bispecific antibody)
chain: EVQLVQSGAEVKKPGSSVKVSCKASGYTFTSYYIYWVRQAPGQGLEWIGNIWPGNGGTFYGEKFMGRATFTADTSTSTAYMELSSLRSEDTAVYYCARRPDYSGDDYFDYWGQGTLVTVSSGGGGSGGGGSGGGGSGGGGSGGGGSGGGGSNVMLTQPHSVSESPGKTVTISCKLNSGNIGSYYVHWYQQRPGSSPTTMIYRDDKRPDGVPDRFSGSIDSSSNSASLTISGLKTEDEADYYCHSYDSTITPVFGGGTKLTVLGQVPRDSGCKPCICTVPEVSSVFIFPPKPKDVLMITLTPKVTCVVVDISKDDPEVQFSWFVDDVEVHTAQTQPREEQFNSTFRSVSELPIMHQDWLNGKEFKCRVNSAAFPAPIEKTISKTKGRPKAPQVYTIPPPKEQMAKDKVSLTCMITDFFPEDITVEWQWNGQPAENYKNTQPIMDTDGSYFVYSKLNVQKSNWEAGNTFTCSVLHEGLHNHHTEKSLSHSPGKGGGGSGGGSGGGSGGGGSEVKLVESEGGLVQPGSSMKLSCTASGFTFSDYYMAWVRQVPEKGLEWVANINYDGTTTYYLDSLKSRFIISRDNSKNILYLQMSSLKSEDTATYYCARVLDGYYGYFDYWGQGTTLSVSSGGGGSGGGGSGGGGSGGGGSGGGGSGGGGSQIVLTQSPAIMSASPGEKVTISCSASSSVSYMYWYQQKPGSSPKPWIYRTYNLASGVPARFSGSGSGTSYSLTISSMEAEDAATYYCQQSHTYPPTFGGGTKLEIKR
notes: contains T252M
[8]
  EC50: 1.1 nM

B7: Hu106mPSMA-4 (bispecific antibody)
chain: EVQLVQSGAEVKKPGSSVKVSCKASGYTFTSYYIYWVRQAPGQGLEWIGNIWPGNGGTFYGEKFMGRATFTADTSTSTAYMELSSLRSEDTAVYYCARRPDYSGDDYFDYWGQGTLVTVSSGGGGSGGGGSGGGGSGGGGSGGGGSGGGGSNVMLTQPHSVSESPGKTVTISCKLNSGNIGSYYVHWYQQRPGSSPTTMIYRDDKRPDGVPDRFSGSIDSSSNSASLTISGLKTEDEADYYCHSYDSTITPVFGGGTKLTVLGQVPRDSGCKPCICTVPEVSSVFIFPPKPKDVLMITLTPKVTCVVVDISKDDPEVQFSWFVDDVEVHTAQTQPREEQFASTFRSVSELPIMHQDWLNGKEFKCRVNSAAFPAPIEKTISKTKGRPKAPQVYTIPPPKEQMAKDKVSLTCMITDFFPEDITVEWQWNGQPAENYKNTQPIMDTDGSYFVYSKLNVQKSNWEAGNTFTCSVLHEGLHNHHTEKSLSHSPGKGGGGSGGGSGGGSGGGGSEVKLVESEGGLVQPGSSMKLSCTASGFTFSDYYMAWVRQVPEKGLEWVANINYDGTTTYYLDSLKSRFIISRDNSKNILYLQMSSLKSEDTATYYCARVLDGYYGYFDYWGQGTTLSVSSGGGGSGGGGSGGGGSGGGGSGGGGSGGGGSQIVLTQSPAIMSASPGEKVTISCSASSSVSYMYWYQQKPGSSPKPWIYRTYNLASGVPARFSGSGSGTSYSLTISSMEAEDAATYYCQQSHTYPPTFGGGTKLEIKR
notes: contains T252M and N297A
[8]
  EC50: 1 nM

Source: US20180194862A1 (AbbVie / Abbott, published 2018)
